From PMC9261887 come the findings set out here.

The target of the assay is Human angiotensin-converting enzyme 2 ectodomain (amino acids 20-613) with C-terminal E5 coil tag, p (human) (UniProt Q9BYF1). Description: SPR. (In SPR one partner is held on a chip, and binding of the other changes the refractive index at the surface.)
Human angiotensin-converting enzyme 2 ectodomain (amino acids 20-613) with C-terminal E5 coil tag, p (human), sequence (Q9BYF1 20-613): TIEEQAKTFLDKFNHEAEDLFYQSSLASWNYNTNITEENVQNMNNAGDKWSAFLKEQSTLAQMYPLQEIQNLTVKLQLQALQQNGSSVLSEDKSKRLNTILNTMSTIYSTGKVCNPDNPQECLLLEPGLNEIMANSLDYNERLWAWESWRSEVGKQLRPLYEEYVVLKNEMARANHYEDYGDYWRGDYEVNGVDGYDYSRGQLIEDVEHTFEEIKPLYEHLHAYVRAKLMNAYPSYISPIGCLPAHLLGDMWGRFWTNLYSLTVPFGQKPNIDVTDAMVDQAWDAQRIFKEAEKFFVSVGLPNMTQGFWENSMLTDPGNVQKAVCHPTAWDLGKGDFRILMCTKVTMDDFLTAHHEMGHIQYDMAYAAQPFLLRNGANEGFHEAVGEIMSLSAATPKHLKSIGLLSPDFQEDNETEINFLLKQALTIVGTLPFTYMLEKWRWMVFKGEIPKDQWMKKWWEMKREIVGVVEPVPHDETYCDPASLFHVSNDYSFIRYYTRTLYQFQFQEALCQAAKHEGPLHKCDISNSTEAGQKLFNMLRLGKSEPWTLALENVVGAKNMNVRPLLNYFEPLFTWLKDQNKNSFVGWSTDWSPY
Turning to “SARS-CoV-2 spike protein receptor binding domain (RBD 319-541), Alpha B.1.1.7 (from UniProt P0DTC2 319-541) (domain or fragment)”, the dH was -17.4 kcal/mol.

As for “SARS-CoV-2 spike protein receptor binding domain (RBD 319-541), Beta B.1.351 (from UniProt P0DTC2 319-541) (domain or fragment)”, the dH was -15.3 kcal/mol.

As for “SARS-CoV-2 spike protein receptor binding domain (RBD 319-541), Delta B.1.617.2 (from UniProt P0DTC2 319-541) (domain or fragment)”, the dH was -10.9 kcal/mol.

In the case of “SARS-CoV-2 spike protein receptor binding domain (RBD 319-541), Kappa B.1.617.1 (from UniProt P0DTC2 319-541) (domain or fragment)”, the dH was -9.56 kcal/mol.

Regarding “SARS-CoV-2 spike protein receptor binding domain (RBD 319-541), Omicron B.1.1.529 (from UniProt P0DTC2 319-541) (domain or fragment)”, the dH was -17 kcal/mol.
